Data taken from patent US20060057144A1.

Target: PsFcγRIIa (recombinant soluble human FcγRIIa protein produced in baculovirus-infected Sf-21 cells) (human) (UniProt P12318)
Assay: SPR competition; monomeric IgG (0 to 2 mg/ml) premixed with 50 ug/ml PsFcγRIIa, passed over immobilised IgG1

“monomeric IgG (Sandaglobulin, available from Sandoz) (antibody)” gave a molar excess giving complete inhibition (fold molar excess) of 6.
